Article PMC5339304

Target: DC-specific intercellular adhesion molecule 3-grabbing non-integrin (DC-SIGN) (human) (UniProt Q9NNX6)
Assay: atomic force spectroscopy (AFM force spectroscopy); MUB covalently attached to the AFM tip (MAL-PEG-SCM linker), DC-SIGN, SIGN-R1 or Dectin-2 covalently attached to glass slides (GMBS); PBS; force-volume mode, 2 um/s, maximum load force 300 pN; repeated after addition of 0.05 mg/ml anti-Mub antibody

modal value of binding strength: 684 pN
Substance: mucus-binding protein MUB of Lactobacillus reuteri ATCC 53608 (natural protein)
